Laboratory results as given in patent US5405946A, “Recombinant protein S variants deficient in C4BP binding activity, compositions and therapeutic methods” (The Scripps Research Institute, priority 1992, dated 1995).
Where a chain is given by its changes, count along the chain named. In names and notes the source's numbering stands.

Assays:
[1] = biological target: activated protein C (APC) (Homo sapiens, UniProt P04070); assay: Activated partial thromboplastin time clotting assay, APC cofactor activity in PS- and C4BP-depleted plasma; type: biochemical
Chain of activated protein C (APC) (P04070 212-461 limits assumed): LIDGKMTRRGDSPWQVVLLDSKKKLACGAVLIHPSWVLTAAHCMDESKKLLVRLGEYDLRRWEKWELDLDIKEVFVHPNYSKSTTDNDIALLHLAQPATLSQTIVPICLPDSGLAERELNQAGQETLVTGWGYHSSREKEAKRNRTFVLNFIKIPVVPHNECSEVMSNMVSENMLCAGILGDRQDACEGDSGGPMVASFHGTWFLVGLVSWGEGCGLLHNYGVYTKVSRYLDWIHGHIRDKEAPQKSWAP
Chain of activated protein C (APC) (P04070 43-197 limits assumed): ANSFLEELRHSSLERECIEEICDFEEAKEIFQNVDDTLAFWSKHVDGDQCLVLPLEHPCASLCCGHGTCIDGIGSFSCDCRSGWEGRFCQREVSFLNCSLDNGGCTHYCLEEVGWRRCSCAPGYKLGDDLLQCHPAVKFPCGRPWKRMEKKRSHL
Procedure: (§1) An activated partial thromboplastin time clotting assay, using PS- and C4BP-depleted plasma, cephalin-kaolin reagent (Boehringer Mannhein, Indianapolis, Ind.), activated protein C (APC) and increasing amounts of recombinant PS variants was performed as described by Chang et al., Thromb. Haemost., 67:526-532 (1992). Briefly, to 50 ul PS and C4BP-depleted plasma (prepared as described by Koedam et al., J. Clin. Invest., 82:1236-1243 (1988)) was added 50 ul cephalin-kaolin reagent, 25 ul APC (Koedam et al., ibid) at 5 ug/ml and 15 to 45 ul recombinant PS variants (0-4 ug/ml) diluted in Michaelis buffer (28.5 mM sodium acetate, 28.5 mM sodium barbital and 116 mM NaCl, pH 7.35) and maintained for 3 minutes at 37C. Clotting was initiated by addition of 50 ul of 25 mM CaCl2 and the clotting time was measured in an Amelung-Coagulometer KC10.
(§2) The ability of the variants to serve as a cofactor for APC was tested in a clotting assay. The clotting assay was performed as described in Example 2D. To examine the effects of thrombin on recombinant PS variants APC cofactor activity, one ml of purified recombinant PS variants listed above and prepared in Example 1D (4-40 ug/ml) was maintained with 1/20 vol (50 ul) of thrombin-Sepharose for 1 hour at 37C. in 50 mM Tris-HCl pH 7.5 containing […]. Thrombin-Sepharose was removed by centrifugation. Supernatants containing the thrombin-treated PS were stored at -20C. until used.
(§3) The PS-dependent prolongation of the clotting time was measured in an activated partial thromboplastin time system using PS and C4BP depleted plasma, APC and cephalin-kaolin reagent as described in Example 2D. Increasing amounts of recombinant PS or the triple variant treated without or with thrombin were added. Clotting was initiated by the addition of CaCl2 and the clotting time was measured. The results are presented as the means of duplicate values.

thrombin = biological target: T1, thrombin (Homo sapiens, UniProt P00734); assay: APC cofactor clotting assay after thrombin-Sepharose treatment of PS variants; type: biochemical; conditions: for Clotting Time After Treatment: after thrombin treatment, without protein S 72 ± 2 seconds
T1 construct: maintained with 1/20 vol (50 ul) of thrombin-Sepharose for 1 hour at 37C
Procedure: as §1, §2, §3

[2] = biological target: T2, human C4b-binding protein (C4BP) (Homo sapiens, UniProt P20851); assay: ELISA of complex formation between recombinant PS variant proteins and C4BP; conditions: first disulfide loop variants, 0-150 ng/ml, C4BP 1 ug/ml, 18 hours room temperature, calcium
T2 sequence (P20851 18-252): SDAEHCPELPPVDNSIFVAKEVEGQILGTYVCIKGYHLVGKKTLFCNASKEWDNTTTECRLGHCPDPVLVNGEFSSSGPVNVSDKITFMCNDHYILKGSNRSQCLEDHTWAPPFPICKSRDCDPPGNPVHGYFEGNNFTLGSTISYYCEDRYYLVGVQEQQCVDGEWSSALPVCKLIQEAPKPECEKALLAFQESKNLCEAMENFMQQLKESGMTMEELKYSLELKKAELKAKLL
T2 sequence (P04003 49-597 partner): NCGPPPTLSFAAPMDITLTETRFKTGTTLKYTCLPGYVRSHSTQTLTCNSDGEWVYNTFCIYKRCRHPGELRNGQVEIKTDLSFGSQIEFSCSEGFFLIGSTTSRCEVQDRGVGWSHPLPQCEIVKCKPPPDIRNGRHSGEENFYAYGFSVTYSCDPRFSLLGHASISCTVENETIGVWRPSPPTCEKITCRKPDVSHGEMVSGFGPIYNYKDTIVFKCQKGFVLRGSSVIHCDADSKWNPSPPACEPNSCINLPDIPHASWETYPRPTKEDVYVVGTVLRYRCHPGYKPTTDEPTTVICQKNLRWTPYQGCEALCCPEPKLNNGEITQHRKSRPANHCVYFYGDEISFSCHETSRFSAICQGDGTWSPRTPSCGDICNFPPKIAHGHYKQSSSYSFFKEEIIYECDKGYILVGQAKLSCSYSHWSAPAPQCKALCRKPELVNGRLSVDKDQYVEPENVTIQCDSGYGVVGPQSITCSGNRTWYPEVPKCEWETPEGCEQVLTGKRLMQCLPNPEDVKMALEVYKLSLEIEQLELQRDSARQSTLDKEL
Procedure: The complex formation between the recombinant PS variant proteins and C4BP was measured with a sensitive ELISA using C4BP and a peroxidase conjugated anti-PS antibody as described by Chang et al., Thromb. Haemost., 67:526-532 (1992). Briefly, IgG at a concentration of 10 ug/ml from monoclonal antibody 8C11, which is directed against the alpha chain of C4BP (Hessing et al., J. Immunol., 144:204-208 (1990)), was coated in 50 mM NaHCO3 at pH 9.6 overnight at 4C. onto polyvinyl microtiter plates (Costar, Cambridge, Mass.). After washing to remove the unbound IgGs, the wells were blocked with 1% (w/v) BSA in 50 mM Tris-HCl at pH 7.5 containing 150 mM NaCl and 5 mM CaCl2 for 1 hour at room temperature. C4BP, prepared as described by Hessing et al., supra, was allowed to bind for 2 hours with a final concentration of 1 ug/ml. Increasing amounts of recombinant PS proteins (E424K, Q427E, K429E, […] and K432E) and wild-type recombinant PS prepared in Example 1 were then added in concentrations ranging from 0-150 ng/ml and maintained for 18 hours at room temperature. Bound proteins were allowed to bind to rabbit anti-human PS IgG conjugated to peroxidase (Dakopatts, Glostrup, Denmark) at a concentration of 0.3 ug/ml for 2 hours at room temperature. After washing the wells to remove the unbound proteins, 100 ul of 0.1M sodium phosphate/0.2M sodium citrate at pH 5.0 containing 0.04% 1,2-phenylenediamine dihydrochloride and 0.015% hydrogen peroxide was added. The hydrolysis of phenylenediamine was stopped by adding 50 ul 2N sulfuric acid. The absorbance was measured at 490 nm using a Vmax plate reader (Molecular Devices Corp., Menlo Park, Calif.). The data represented the mean of duplicate determinations.
The binding of the of the thrombin domain recombinant PS variants to C4BP was determined. The complex formation between the recombinant proteins and C4BP was measured with a sensitive ELISA using anti-C4BP monoclonal antibody 8C11 lgG, purified C4BP and peroxidase conjugated anti-PS antibody as described in Example 2A.
Anti-C4BP monoclonal antibody 8C11 IgG was coated onto microtiter wells to catch C4BP (1 ug/ml). Increasing amounts (0-100 ng/ml) of recombinant PS or variants (R49L, R60L, R70I, R49L/R60L, R60L/R70I, R49L/R70I and R49L/R60L/R70I) were added. Binding to C4BP was for 18 hours at room temperature. Bound PS variants were detected with anti-PS IgG conjugated to peroxidase (0.3 ug/ml). The results are the mean of duplicate values in two different experiments.

[3] = concentration 2.38 ug/ml, without protein S 72 ± 2 seconds
[4] = final conc. 0.6 ug/ml, basal clotting 80
[5] = concentration 1.12 ug/ml, without protein S 72 ± 2 seconds
[6] = concentration 0.60 ug/ml, without protein S 72 ± 2 seconds

rPS wild-type: recombinant wild-type full length human protein S expressed in C127I cells [reference compound]
Clotting Time [1, 3]: 91 s | Clotting Time ([1]; final conc. 2.4 ug/ml, basal clotting 80): 116 s | Clotting Time After Treatment (thrombin; concentration 2.38 ug/ml): 70 s | APC cofactor activity after treatment with thrombin (thrombin; thrombin-Sepharose 1 hour at 37C): significantly decreased

B1: E424K variant: recombinant human protein S with Glu-424 replaced by Lys (protein)
chain: ANSLLEETKQGNLERECIEELCNKEEAREVFENDPETDYFYPKYLVCLRSFQTGLFTAARQSTNAYPDLRSCVNAIPDQCSPLPCNEDGYMSCKDGKASFTCTCKPGWQGEKCEFDINECKDPSNINGGCSQICDNTPGSYHCSCKNGFVMLSNKKDCKDVDECSLKPSICGTAVCKNIPGDFECECPEGYRYNLKSKSCEDIDECSENMCAQLCVNYPGGYTCYCDGKKGFKLAQDQKSCEVVSVCLPLNLDTKYELLYLAEQFAGVVLYLKFRLPEISRFSAEFDFRTYDSEGVILYAESIDHSAWLLIALRGGKIEVQLKNEHTSKITTGGDVINNGLWNMVSVEELEHSISIKIAKEAVMDINKPGPLFKPENGLLETKVYFAGFPRKVESELIKPINPRLDGCIRSWNLMKQGASGIKKIIQEKQNKHCLVTVEKGSYYPGSGIAQFHIDYNNVSSAEGWHVNVTLNIRPSTGTGVMLALVSGNNTVPFAVSLVDSTSEKSQDILLSVENTVIYRIQALSLCSDQQSHLEFRVNRNNLELSTPLKIETISHEDLQRQLAVLDKAMKAKVATYLGGLPDVPFSATPVNAFYNGCMEVNINGVQLDLDEAISKHNDIRAHSCPSVWKKTKNS
binding to C4BP [2]: bound to C4BP with the same apparent affinity as the wild type recombinant molecule | Clotting Time [1, 4]: 97 s

B2: R60L variant: recombinant protein S single variant in thrombin-sensitive domain, arginine 60 replaced by leucine (protein, UniProt P07225 42-676, looked up, variant R60L)
Vitamin K-dependent protein S: B1 chain with R60L, K424E
Clotting Time [1, 3]: 90 s | Clotting Time After Treatment (thrombin; concentration 2.38 ug/ml): 75 s

B3: K432E variant: recombinant human protein S with Lys-432 replaced by Glu (protein)
chain: B1 chain with K424E, K432E
binding to C4BP [2]: failed to bind to C4BP at concentrations up to 50 ng/ml

B4: I425A/I426A variant: recombinant human protein S with alanine in place of isoleucine at positions 425 and 426 (protein)
chain: B1 chain with K424E, I425A, I426A
binding to C4BP [2]: failed to bind to C4BP at concentrations up to 50 ng/ml

B5: R49L/R70I variant: recombinant protein S double variant in thrombin-sensitive domain (protein, UniProt P07225 42-676, looked up, variant R49L R70I)
Vitamin K-dependent protein S: B1 chain with R49L, R70I, K424E
Clotting Time [1, 5]: 86 s | Clotting Time After Treatment (thrombin; concentration 1.12 ug/ml): 80 s

B6: R70I variant: recombinant protein S single variant in thrombin-sensitive domain, arginine 70 replaced by isoleucine (protein, UniProt P07225 42-676, looked up, variant R70I)
Vitamin K-dependent protein S: B1 chain with R70I, K424E
Clotting Time [1, 6]: 79 s | Clotting Time After Treatment (thrombin; concentration 0.60 ug/ml): 75 s

B7: R60L/R70I variant: recombinant protein S double variant in thrombin-sensitive domain (protein, UniProt P07225 42-676, looked up, variant R60L R70I)
Vitamin K-dependent protein S: B1 chain with R60L, R70I, K424E
Clotting Time [1, 6]: 79 s | Clotting Time After Treatment (thrombin; concentration 0.60 ug/ml): 72 s

B8: R49L variant: recombinant protein S single variant in thrombin-sensitive domain, arginine 49 replaced by leucine (protein, UniProt P07225 42-676, looked up, variant R49L)
Vitamin K-dependent protein S: B1 chain with R49L, K424E
Clotting Time [1, 6]: 80 s | Clotting Time After Treatment (thrombin; concentration 0.60 ug/ml): 72 s

B9: R49L/R60L variant: recombinant protein S double variant in thrombin-sensitive domain (protein, UniProt P07225 42-676, looked up, variant R49L R60L)
Vitamin K-dependent protein S: B1 chain with R49L, R60L, K424E
Clotting Time [1, 5]: 88 s | Clotting Time After Treatment (thrombin; concentration 1.12 ug/ml): 80 s

B10: Q427E variant: recombinant human protein S with Gln-427 replaced by Glu (protein)
chain: B1 chain with K424E, Q427E
binding to C4BP [2]: bound to C4BP with the same apparent affinity as the wild type recombinant molecule | Clotting Time [1, 4]: 94 s
